Paper PMC6721605

Target: dynamin-like protein B (dlpB) of Dictyostelium discoideum (Dictyostelium discoideum (endogenous in AX2)) (UniProt Q54MH8)
Assay: co-IP; anti-dlpB antibodies on Dynabeads protein G; lysate of partially synchronized (mitotic) wild-type cells (10 °C 16 h, then 10 µM thiabendazole 3.5 h); lysis buffer 150 mM NaCl, 5 mM EGTA, 5 mM EDTA, 1% Triton X-100, 20 mM Tris-HCl pH 7.5; western blot with anti-dlpA and anti-dlpB

UniProt Q54MH8, sequence (Q54MH8 whole entry): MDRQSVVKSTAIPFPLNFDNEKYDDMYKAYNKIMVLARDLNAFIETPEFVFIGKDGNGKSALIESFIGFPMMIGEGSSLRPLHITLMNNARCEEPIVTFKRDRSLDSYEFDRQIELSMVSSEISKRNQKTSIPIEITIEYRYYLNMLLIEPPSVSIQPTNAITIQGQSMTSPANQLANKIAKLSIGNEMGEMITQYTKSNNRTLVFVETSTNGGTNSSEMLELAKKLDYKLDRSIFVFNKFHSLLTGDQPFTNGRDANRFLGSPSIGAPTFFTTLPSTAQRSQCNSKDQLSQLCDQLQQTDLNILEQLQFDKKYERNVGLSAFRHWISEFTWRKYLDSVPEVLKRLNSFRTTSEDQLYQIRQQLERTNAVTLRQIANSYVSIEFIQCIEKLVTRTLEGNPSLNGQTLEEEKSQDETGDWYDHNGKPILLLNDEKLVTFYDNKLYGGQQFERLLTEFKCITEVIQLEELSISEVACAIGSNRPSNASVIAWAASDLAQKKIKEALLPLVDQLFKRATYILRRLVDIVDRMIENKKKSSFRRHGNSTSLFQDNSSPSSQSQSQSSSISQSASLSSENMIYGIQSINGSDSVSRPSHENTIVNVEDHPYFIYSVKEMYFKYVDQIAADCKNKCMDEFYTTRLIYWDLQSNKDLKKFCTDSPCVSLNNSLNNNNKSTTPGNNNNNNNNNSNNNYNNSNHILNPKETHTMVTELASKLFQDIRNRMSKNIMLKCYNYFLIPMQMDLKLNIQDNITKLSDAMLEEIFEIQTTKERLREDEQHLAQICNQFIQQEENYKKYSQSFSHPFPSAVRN

amount of dlpA in the IP fraction as percent of that in supernatant: 58%
B1: dynamin-like protein A (dlpA) of Dictyostelium discoideum (natural protein)
chain: MSVFKKKDKSDDKKKKHDEETPQGTFQPASQSTSNTNLNSLASSVNNGASVGSTNGSTPNNSNGSTPTYNHNNSAEELEKQKKEEDEKRKKSELEAAAAVVAKKKEDEEKQRKEQVELERKRRDEEIRRTNAAAANAANKELNEQVEISSLEQMGKLDPSSTIHDMFSFFPNEVYNSYEKLQYFSRDLNTAVSHPEIVFVGPRSSGKSSLIEAFIGRALNIVGGGNIVGVGGSNANGCSKRVLYLQFTNNIDFEVPKVTIKKDNTIKEFDHDIIVSIEQLNENLAKRNQLTNDYIEEPIYVSIESRTTLNLTLIDSPGLLFDQSQAESNKIESIVSSLLRPSHRLIIAVESCSQDWKSMSMGQYLKKIDPELSRSTFVFTKFHHTVRGFSSTRDINKYLSGTVPDIKGFFVTLPNHQVRASYSEANRFQEKIYQAHKRDMHALEQLQYDKRYERTIGVAPLRRYILNIVWKSYQDTIPRILKHLRSKRQTAEATLNELQKQSSSLDSTKLRSIASNYTVTFLQITEKLLSGTSEGNPSANGQTLDEEKSQQGDCGEWVDAYKEAIYIDPEEWNIPYWSSKLYGGQQLERLMAEFKAVCDNSKISEVKMDDIATASGINKLNNIPNYAWAASDLTSLISRDTFVPLIEQLCERAMYIMKRLTDIADKVIDSRRKSRCIGSSPFGGNGLNNINSGGNNGININDRLSNTDMDSLDQYPFFTHHVKNLYYDFVHRAAKGCKEKCMDEFYSSRTIYWELTEHPDSSLPSIRNDHHETKTAVCQLATKLFDSIRQRITKNVLLKLYNFFLVPMQTDLWNEIQAQITCLSNEQLEQLFEVQATREQLKQEEKKQQQILEKYSQIDEQFLKAASLFCRPLSNPTPSA
